Among the data in article PMC3236198 are stoichiometry N values, retold here.

The assay deals with ΔC SSB (Escherichia coli) (UniProt P0AGE0). Kind of assay: SEC.

With “ΔC SSB (from UniProt P0AGE0 1-113) (domain or fragment)”, the stoichiometry N stood at 4.
